Measured values as given in the RNAGym collection of RNA variant scans (doi:10.1073/pnas.2313332121).

B1: TPR t1 (parent)
chain: GACCAAUCUGCCCUCAGAGCUCGAGAACAUCUUCGGAUGCAGAGGAGGCAGGCUUCGGUGGCGCGAUAGCGCCAACGUCCUCAACCUCCAAUGCAUCCCACCACAUGAUGAUGCCUGAAGAGCCUUGGUUUUUUG

Variants of: B1
Experiment: polymerase ribozyme fitness, log enrichment relative to wild type (log ratio); higher = more active; in vitro selection for triplet polymerase activity
Method in brief: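 Fitness compares each genotype's enrichment to that of the wild type on a logarithmic scale, averaging replicates with inverse-variance weights. The logarithm is base 2. Enrichment came from Illumina sequencing of input and output libraries after one triplicate round of in vitro selection, which included frozen incubation at −7 °C, of PCR-built, transcribed mutant libraries of each subunit of a heterodimeric triplet polymerase ribozyme. Only genotypes with ≥10 input reads and ≥1 read per output were kept.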

| Variant | polymerase ribozyme fitness (log ratio) |
| --- | --- |
| G47U C72G G117U | -5.24 |
| G47U C72G A90G | -1.68 |
| G48A C79U U92G U116C G120C | -5.27 |
| G47U G71C C104A | -4.32 |
| G47U C56G G69C C76A A119G U129C | -7.91 |
| G47U G58C C73G C104U A121U | -5.16 |
| G47U G60A | -1.93 |
| G47U G63A A111G G120A | -3.58 |
| G47U C72A C76A | -1.85 |
| G48A G52U C80G | -5.98 |
| G48A G51U | -2.61 |
| G48A C72U C101G U133A | -2.79 |
| G47U G77U U106G | -3.7 |
| G47U G71A C104U | -2.44 |
| G47U C73A C85U | -1.61 |
| G47U C80U C124A U131G G135A | -0.0494 |
| G48A C56G G93U | -2.28 |
| G48A C64G U81A C89A | -7.34 |
| G47U U116A | -3.64 |
| G48A C124U U133G | 0.41 |
| G47U G77U C94A U116C A121C | -4.66 |

| Variant | polymerase ribozyme fitness (log ratio) |
| --- | --- |
| G48A C88U | -0.667 |
| G48A C86G A118C | -3.12 |
| G47U G61A U131A | -0.875 |
| G47U C56U U116C | -2.14 |
| G48A G61A A103C C104U | -5.34 |
| G47U G113C | -2.7 |
| G47U G113U | -3.52 |
| G48A C123A G135A | 0.126 |
| G47U C102U | -3.31 |
| G47U U54G C104U | -1.47 |
| G47U G61C A90U G117C | -6.8 |
| G47U G71C U126G | -3.65 |
| G48A C72G C124U | 0.723 |
| G48A A95U | -1.28 |
| G48A C88A G113U G120A | -4.63 |
| G48A G51A G71A C79A A84U G128A U129G | -6.49 |
| G47U U55C C101G | -2.84 |
| G47U C73U | -1.42 |
| G47U C123U | -0.404 |
| G48A C79A C97U | -2.68 |
| G47U U92A | -5.48 |

| Variant | polymerase ribozyme fitness (log ratio) |
| --- | --- |
| G47U G110C | -5.49 |
| G47U C53U | -1.6 |
| G47U C53A | -1.95 |
| G47U G60U U116C U131A U132C | -1.54 |
| G48A A100U C101U G117A C123A | -3.72 |
| G48A G57U A95C U112A C114A | -3.34 |
| G48A A84C C86U U87G G117A G128U | -6.08 |
| G48A A66U | -2.3 |
| G47U G60A C86A C89U | -0.955 |
| G48A C80G A95C U109G | -7.79 |
| G47U G61A | -0.861 |
| G47U C64A A121U | -4.82 |
| G48A A103G G110U | -6.26 |
| G47U C49G C62U C88A A95C C123A | -4.59 |
| G47U U78G U96A | -1.79 |
| G48A C72U A119U | -0.826 |
| G47U U54C C56A C80U C124G | -1.14 |
| G48A A75U C79G A90U A95C G120A U129G | -6.14 |
| G47U G127A | -2.68 |
| G47U G127U | -2.57 |
| G47U G57A G69U | -1.68 |

| Variant | polymerase ribozyme fitness (log ratio) |
| --- | --- |
| G47U U54C C76A U92C | -5.69 |
| G47U U59C C101U U125G U126C | -3.12 |
| G47U C62U G71U C82A A95U | -3.36 |
| G48A A84G | -0.314 |
| G48A A84C | -0.643 |
| G48A A68G | -2.51 |
| G48A C115A | -1.47 |
| G48A C115U | -1.61 |
| G48A C53G U55C G69A | -2.78 |
| G47U G48C | -1.51 |
| G47U G48U | -2.67 |
| G48A C49U C56A A100U | -2.11 |
| G47U U81A | -3.01 |
| G48A C97A | -5.22 |
| G47U C53U C104U | -1.72 |
| G47U C64A C80G U87G C88A U112A | -6.27 |
| G48A G60U A90C C114A | -2.49 |
| G47U U112C | -0.538 |
| G47U U112A | 0.352 |
| G48A A50C A84G | -0.336 |
| G48A C124G | 0.442 |
